Data reported in PMC10811340.

How the values were obtained:
[1] = target: Milano Short Tail Fiber (STF), gp31 (Agrobacterium tumefaciens bacteriophage Milano); assay: cryo-EM structure; baseplate junction of purified native Milano virions in the extended state, single particle analysis with C3 symmetry, ~3.2 Å; distal parts of the receptor-binding proteins and the garland only rigid-body fitted with AlphaFold models
[2] = target: Milano Tail Spike Protein (TSP), gp124 (Agrobacterium tumefaciens bacteriophage Milano); assay: as above
[3] = target: Milano tail tube protein, gp21 (Agrobacterium tumefaciens bacteriophage Milano); assay: cryo-EM structure; extended (pre-attachment) tail of purified native Milano virions; curved tail segments reconstructed with no imposed symmetry; the straight baseplate-proximal segment was extracted from the baseplate junction structure

Milano Short Tail Fiber (STF), gp31 (natural protein)
stoichiometry N [1]: 3

Milano Tail Spike Protein (TSP), gp124 (natural protein)
stoichiometry N [2]: 3

Milano tail tube protein, gp21 (natural protein)
stoichiometry N [3]: 6
